Experimental findings from PMC10200994 are described below.

In this test the target is T1, STAT1 (unphosphorylated, wild-type), fluorophore fusion, P42224.
T1 chain: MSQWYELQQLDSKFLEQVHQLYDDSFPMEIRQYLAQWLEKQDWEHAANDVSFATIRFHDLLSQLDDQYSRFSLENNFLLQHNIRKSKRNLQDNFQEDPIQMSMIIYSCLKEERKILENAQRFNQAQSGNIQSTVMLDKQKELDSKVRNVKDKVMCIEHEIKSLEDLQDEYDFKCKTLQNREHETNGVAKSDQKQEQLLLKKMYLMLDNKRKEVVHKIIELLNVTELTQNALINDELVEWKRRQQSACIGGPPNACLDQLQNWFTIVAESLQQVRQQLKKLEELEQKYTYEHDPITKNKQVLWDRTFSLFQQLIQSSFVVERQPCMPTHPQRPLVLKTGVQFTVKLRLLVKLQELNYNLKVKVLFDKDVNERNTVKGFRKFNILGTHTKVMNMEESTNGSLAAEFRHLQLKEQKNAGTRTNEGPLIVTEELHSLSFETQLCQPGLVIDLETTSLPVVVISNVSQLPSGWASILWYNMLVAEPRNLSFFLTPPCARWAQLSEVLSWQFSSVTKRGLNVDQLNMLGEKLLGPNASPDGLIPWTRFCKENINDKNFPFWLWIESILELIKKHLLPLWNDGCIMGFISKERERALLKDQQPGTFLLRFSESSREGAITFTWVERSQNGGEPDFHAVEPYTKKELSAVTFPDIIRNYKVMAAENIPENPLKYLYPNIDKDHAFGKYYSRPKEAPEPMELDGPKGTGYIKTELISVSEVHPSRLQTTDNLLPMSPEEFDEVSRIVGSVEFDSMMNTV
Nature of the test: co-localization assay (relocalisation of a test protein by a compartment-targeted bait, fluorescence microscopy); HeLa cells co-expressing bait (STAT-NES or STAT-NLS, or wild-type STAT2 with its own export activity; green) and test protein without heterologous signal (red); no cytokine; fixed 20 h after transfection; Pearson correlation coefficient rP in cells with equimolar to 4-fold excess of bait. As to conditions: remark: other sources report otherwise.

B1: STAT1 (unphosphorylated, wild-type), fluorophore fusion, P42224 1-750 (natural protein)
chain: T1 chain
With B1, the Pearson correlation coefficient rP (co-localization) was > 0.94.
